Entries after “also recorded” stand apart in the source; their conditions may differ.

One molecule from US20130122008A1, “Anti-IL 1- ß Antibody Combination Therapy” (NOVARTIS AG, priority 2009, published 2013) can be followed below.

Format in all cases: in vivo, human
In assay [1] the test system is patients with type 2 diabetes mellitus (T2DM). Description: C-peptide (OGTT) in clinical study of ACZ885 in T2DM patients on metformin. The conditions noted are these: dose escalation, Week 4 post-dose, versus placebo. An excerpt:
In the beta cells of the pancreas, the proinsulin molecule is cleaved to form insulin and C-Peptide. C-Peptide, a polypeptide consisting of 31 amino acids, is stored in the secretory granules of the beta cells and released into circulation in equimolar amounts with insulin. The determination of C-Peptide provides an assessment of endogenous insulin secretory reserves in patients with diabetes mellitus and is considered a more reliable indicator of insulin secretion than insulin itself. The ADVIA Centaur C-Peptide assay is a two-site sandwich immunoassay using direct chemiluminescent technology, which uses constant amounts of two antibodies. The first antibody, in the Lite Reagent, is a monoclonal mouse anti-C-Peptide antibody labeled with acridinium ester. The second antibody, in the Solid Phase, is a monoclonal mouse anti-C-Peptide antibody. Streptavidin in the Solid phase is covalently coupled. A direct relationship exists between the amount of C-Peptide present in the patient sample and the amount of relative light units (RLUs) detected by the system. The method has an inter-assay precision of 1.69-1.81% CV, and an intra-assay precision of 3.7-4.1% (determined by assaying 20 replicate assays of a sample then evaluating the coefficient of variation). Accuracy is evaluated by comparison with College of American Pathologists (CAP) Ligand. […]

Assay [2] has the same test system. Kind of assay: Proinsulin in clinical study of ACZ885 in T2DM patients on metformin. The note with it: Week 4 post-dose, versus placebo. How it is done: A multi center, randomized, double blind, placebo-controlled, dose escalation study of the safety, tolerability, pharmacokinetics and pharmacodynamics of ACZ885 administered intravenously to patients with type 2 diabetes mellitus. The aim of the study is to compare the pharmacokinetic and pharmacodynamic effects of five doses (i.v. administration) of ACZ885 with placebo in patients with type 2 diabetes mellitus (T2DM). […] OGTT was administered at Baseline, 4 and 12 wk post-dose. The subsequent cohorts were included in the evaluation of pharmacodynamic, pharmacokinetis, pharmacogenomics and pharmacogenetics. • Cohort 2 (n=90; 1:1=ACZ885:Plb): received a single dose of ACZ885 (10 mg/kg) or placebo. • Cohort 3 (n=96) received a single dose of ACZ885 0.1, 0.3, 1.5 mg/kg or placebo (1:1:1:1). • Cohort 4 (n=30; 2:1=ACZ885:P1b) received a single dose of ACZ885 (0.03 mg/kg) or placebo. The study was designed to follow the patients for 24 weeks (168 days) after the single intravenous (i.v.) administration. An analysis of covariance (ANCOVA) with treatment as the classification variable and baseline as the covariate will be used for the comparison of treatments with respect to these parameters.

Assay [3] shares this test system. Description: Hemoglobin A1c in clinical dose escalation study of ACZ885 i.v. in T2DM patients on metformin. How it is done: The hemoglobin A1c assay is performed at Covance Central Laboratory Services (CLS) on the FDA-approved Bio-Rad Variant™ analyzer. This analyzer utilizes the principles of ion-exchange high performance liquid chromatography (HPLC) and microcomputer technology. Detection is performed at two wavelengths, 415 nm and 690 nm, to insure a stable baseline. A chromatogram of the changes in the absorbance is plotted versus the retention time. Each chromatogram printout is accompanied by a report identifying each peak detected, plus the relative percent and retention times of each peak. The method has an inter-assay precision of 1.7-2.1% CV, and an intra-assay precision of 0.9-1.1% (determined by assaying 15 replicate assays of a sample then evaluating the coefficient of variation). A multi center, randomized, double blind, placebo-controlled, dose escalation study of the safety, tolerability, pharmacokinetics and pharmacodynamics of ACZ885 administered intravenously to patients with type 2 diabetes mellitus. The aim of the study is to compare the pharmacokinetic and pharmacodynamic effects of five doses (i.v. administration) of ACZ885 with placebo in patients with type 2 diabetes mellitus (T2DM). […] OGTT was administered at Baseline, 4 and 12 wk post-dose. […]

B1: ACZ885: anti-IL1β antibody, also referred to as Canakinumab; variable domains shown in SEQ ID NO:1 (VH) and SEQ ID NO:2 (VL) (antibody, V domains shown)
VH: QVQLVESGGGVVQPGRSLRLSCAASGFTFSVYGMNWVRQAPGKGLEWVAIIWYDGDNQYYADSVKGRFTISRDNSKNTLYLQMNGLRAEDTAVYYCARDLRTGPFDYWGQGTLVTVSS
VL: EIVLTQSPDFQSVTPKEKVTITCRASQSIGSSLHWYQQKPDQSPKLLIKYASQSFSGVPSRFSGSGSGTDFTLTINSLEAEDAAAYYCHQSSSLPFTFGPGTKVDIK
modifications: homo sapiens
Take B1: the “OGTT C-peptide AUC0-4 h” value in assay [1] is “Positive trends consistent with dose escalation; also recorded: positive trend at Week 4 post-dose, albeit not statistically significant”. Moreover, the proinsulin entry in assay [2] was “positive trend at Week 4 post-dose, albeit not statistically significant”. Besides, the “hemoglobin A1c (HbA1c)” value in assay [3] (single i.v. dose 1.5 mg/kg, Week 4, T2DM subjects on stable metformin, versus placebo, 1.5 mg/kg) is on record as “statistically significant decreased; also recorded: Significant reduction”. Also, in assay [3] (single i.v. dose 10 mg/kg, Week 4 to Week 12, p=0.032), the “reduction in HbA1c” value is −0.32%.
